From the DeepSol protein solubility set

Test: soluble on expression in E. coli; label from the status in PepcDB or PDB records

| Sequence | soluble on expression in E. coli |
| --- | --- |
| EDFVVSGALNLSLIRERTGFQAKATEDYQTLAGLVMSLLDRLPSTGDSLSWQGWNLQVVGVEERRVTRVLLQKQP | not soluble |
| MNRLHGQQVKIGYGDNTIINKLDVEIPDGKVTSIIGPNGCGKSTLLKALSRLLAVKEGEVFLDGENIHTQSTKEIAKKIAILPQSPEVADGLTVGELVSYGRFPHQKGFGRLTAEDKKEIDWAMEVTGTDTFRHRSINDLSGGQRQRVWIAMALAQRTDIIFLDEPTTYLDICHQLEILELVQKLNQEQGCTIVMVLHDINQAIRFSDHLIAMKEGDIIATGSTEDVLTQEILEKVFNIDVVLSKDPKTGKPLLVTYDLCRRAYS | not soluble |
| MAHHHHHHMLRRVTCMAASVGRAAAALSVSPVMAQIPSAMRPPSKASTSAVASLLPPCCQPIYQQRRCYASRSGEEKGNADKGTQAAAAAVSTTPGTATAEAVRYFAANEQNADAAARAQGSVKQQEQLSAAAANGGDAATSGIRTIGIKLTEDDELVRAFNNFSKSVNGCTQEEFLIGAKQAYYSLAVVISAFLEHGQPLAGRTESTKMIAAAHEAAKLLDKEFKPESRCDAAATSLASKAEGDGTDDSSSSSSKTKLQESLVRNVVSTIVSLIPVSRHLAESIFKIWLLHKVKQVNLSSIASPADYVLDSKLVIFARLGKARMYFNSDNVGAEVDVTFSNDYLRKLDPASVAGSGAAGSSQMADAAGKVDEDDFDTGMIQVHTDTDANAHRTTAEEHTFVVNKATRTLTPTGSTAASTAAAAAAASTDAARRSGGNSASAGAGGASAADSAKSSGTASRIQVTCVKTTDFLRKSASAATVAATAVRDEAAAKTAAPNESSGEEEEEAHSVYIKVNGNMLPPIPASAHACALLTVDVVVPPERYAYNFEWFYKRIVGYENEYERIAAARVFASNSPKPLASFLDFFMRMVTGKPVEFMFSKAIGRMIGIPDDVSQTPPATRKLMCMYMDQSYKWVLADLVTLAPVMETKLPKA | not soluble |
| MNIAAESSAKPVWGPPNFCAAAARMQDVRVLMHPKTGRAFRSPVEPGSGWPGDPATPQTPVAADAAQVSALAGGAGSICELNALISVCRACPRLVSWREEVAVVKRRAFADQPYWGRPVPGWGSKRPRLLILGLAPAAHGANRTGRMFTGDRSGDQLYAALHRAGLVNSPVSVDAADGLRANRIRITAPVRCAPPGNSPTPAERLTCSPWLNAEWRLVSDHIRAIVALGGFAWQVALRLAGASGTPKPRFGHGVVTELGAGVRLLGCYHPSQQNMFTGRLTPTMLDDIFREAKKLAGIE | soluble |
| MSLAERLNNDFQFIEVGRKDPKKKLLRQRKKEFVEIYEPFKPQQSVEQAHRCLGCGNPYCEWKCPVHNFIPNWLKLVSEGNILAAAELSHQTNTLPEVCGRVCPQDRLCEGACTLNDGFGAVTIGSVEKYITDTAFAMGWRPDMSKVKPTGKRVAIIGAGPAGLGCADVLVRAGVTPVVFDKNPEIGGLLTFGIPEFKLEKTVLSNRREVFTGMGIEFRLNTEVGKDVTMEQLLAEYDAVFMGMGTYTYMKGGFPGEDLPGVHDALDFLIANVNRNLGFEKSPEDFVDMQGKKVVVLGGGDTAMDCNRTSIRQGAKAVTCAYRRDEANMPGSRKEVKNAKEEGVKFLYNRQPIAIVGEDKVEGVKVVETRLGEPDARGRRSPEPIPGSEEILPADAVVIAFGFRPSPAPWFEQHGIQLDSQGRVVAPEKGKFKHQTSNPKVFAGGDMVRGSDLVVTAIFEGRTAAEGILDYLEVEGHHHHHH | soluble |
| MSNAIEINELHWLLAVTQNIDVGIVVLDLNYRVTVWNTFMENRSGVVPYVAIDKTFFELFPEVNRQWLSKKIDNVVTLGTPAFTIWEQRPYLVRFKNYQPITGHEEFMYQNTTLFPLRSTTGAISHVCLVIYDVTDVAANRN | not soluble |
| MGSDKIHHHHHHMSQNVYQFIDLQRVDPPKKPLKIRKIEFVEIYEPFSEGQAKAQADRCLSCGNPYCEWKCPVHNYIPNWLKLANEGRIFEAAELSHQTNTLPEVCGRVCPQDRLCEGSCTLNDEFGAVTIGNIERYINDKAFEMGWRPDLSDVKPTGKTVAIIGAGPAGLACADVLTRNGVKAVVFDRHPEIGGLLTFGIPAFKLEKEVMTRRREIFTGMGIEFKLNTEVGRDVQLDDLLKEYDAVFLGVGTYQSMRGGLDNEDAPGVYDALPFLIANTKQIMGFGETADEPYVSMEGKRVVVLGGGDTAMDCVRTSVRQNAAHVICAYRRDEENMPGSKREVKNAREEGVEFQFNVQPLGVEVNANGKVCGVKMARTEMGQPDAKGRRRAEIVPGSEHVVPADAVVMAFGFRPHSMEWLAKHSVEMDSQGRIIAPEGSENAFQTSNPKIFAGGDIVRGSDLVVTAIAEGRKAADGILNYLEV | not soluble |
| MGSDKIHHHHHHMPKSVRAENISRILKRIMKSPVSRVELAEELGLTKTTVGEIAKIFLEKGIVVEEKDSPKGVGRPTKSLKISPNCAYVLGIEVTRDEIAACLIDASMNILAHEAHPLPSQSDREETLNVMYRIIDRAKDMMEKLGSKLSALTVAAPGPIDTERGIIIDPRNFPLSQIPLANLLKEKYGIEVWVENDADMGAVGEKWYTKRDDSFAWILTGKGIGAGIIIDGELYRGENGYAGEIGYTRVFNGNEYVFLEDVCNENVVLKHVLSMGFSSLAEARDSGDVRVKEYFDDIARYFSIGLLNLIHLFGISKIVIGGFFKELGENFLKKIKIEVETHLLYKHSVDMSFSKVQEPVIAFGAAVHALENYLERVTTS | soluble |
| MGSDKIHHHHHHIASQENCSNKEDLTNRAEDFQSDFVKTMDIIKEHHVAYGNSNARNMLEVREQILQEKGFDDIYVQKKHAENCTAIAELPRVLAKIDELKNTGDEKTVLEYVSRGLLAGNVFDWGAKEVVKMMNSESGLTFQTAIDHVENRPWLFDGFDSFYKKHKEYKSVLIFVDNSGFDYILGIIPFARELLRNGSRVIICANTSPALNDLTYREMVELAPELKNADSDLAKFIDSNQMMFVQTGQESPCMDARRVHQDLNETVKKFNTDLVVIEGMGRALHTNFNVQFKCDSLKAAVIKTQWLADRLGGKMFSVVFKHE | not soluble |
| GEGITLNQVAVGCECQDCLWAPTGGCCPGASLHKFAYNDQGQVRLRAGLPIYECNSRCRCGYDCPNRVVQKGIRYDLCIFRTDDGRGWGVRTLEKIRKNSFVMEYVGEIITSEEAERRGQIYDRQGATYLFDLDYVEDVYTVDAAYYGNISHFVNHSCDPNLQVYNVFIDNLDERLPRIAFFATRTIRAGEELTFDYNMQVDPVDMESTRMDSNFGLAGLPGSPKKRVRIECKCGTESCRKYLF | not soluble |
| EDLIFGKRISLDLGYREKALFYSLEEHVALIHPEDHDNFIHCWQLFISSANLKDNFSCTYRLKTSDGQWFWYKDLGKIVAVDANNHPVRVTGSYTNITESRANEERAQYYGDAFQQTQ | not soluble |
| MAHHHHHHMPLRACVSRTPAQARLVEVVSDYVQHLMDMQASRCAETSLDGHVVPPPNAKYPSHDFFCATHAPAISVKKYTDRLVTYMHCSPEAFVFAVAYLRRLVLSGFPMHLQSIHRLLLTAVLVALKCRDDVYYHMSFYAEVGGVTSKDLRIMEIRFLSDLIRFEGEVSLADYHVVMVDMMRVTERRMITNISGKTEMCNRCGMSAGAFTTSIPGDLGCLHCKGDAFAHSWTSECELFWGPLNSAFSLPSGEV | not soluble |
| MIQIAIAGSSDEKPLEVAVRKTKEFIKALPSDVILMTGGRGGIMEVASEEFRKKGGIVVGILPYSDNGNRFNTVRVKTGLNPVERSGVLIESADVLVVLGGGVGTMIEALMAYNLGIPVIVITGTGYASDRLMELAKEGYFDHKRIVKVIFTDDPKEAAKLALKIGGERSEARDI | soluble |
